In data set [1] the target is T1, ΔDEAD human Dicer (lacks DExD/H-box domain, aa 1-604 deleted) (Homo sapiens, UniProt Q9UPY3 SEQ:1-1318).
T1 chain: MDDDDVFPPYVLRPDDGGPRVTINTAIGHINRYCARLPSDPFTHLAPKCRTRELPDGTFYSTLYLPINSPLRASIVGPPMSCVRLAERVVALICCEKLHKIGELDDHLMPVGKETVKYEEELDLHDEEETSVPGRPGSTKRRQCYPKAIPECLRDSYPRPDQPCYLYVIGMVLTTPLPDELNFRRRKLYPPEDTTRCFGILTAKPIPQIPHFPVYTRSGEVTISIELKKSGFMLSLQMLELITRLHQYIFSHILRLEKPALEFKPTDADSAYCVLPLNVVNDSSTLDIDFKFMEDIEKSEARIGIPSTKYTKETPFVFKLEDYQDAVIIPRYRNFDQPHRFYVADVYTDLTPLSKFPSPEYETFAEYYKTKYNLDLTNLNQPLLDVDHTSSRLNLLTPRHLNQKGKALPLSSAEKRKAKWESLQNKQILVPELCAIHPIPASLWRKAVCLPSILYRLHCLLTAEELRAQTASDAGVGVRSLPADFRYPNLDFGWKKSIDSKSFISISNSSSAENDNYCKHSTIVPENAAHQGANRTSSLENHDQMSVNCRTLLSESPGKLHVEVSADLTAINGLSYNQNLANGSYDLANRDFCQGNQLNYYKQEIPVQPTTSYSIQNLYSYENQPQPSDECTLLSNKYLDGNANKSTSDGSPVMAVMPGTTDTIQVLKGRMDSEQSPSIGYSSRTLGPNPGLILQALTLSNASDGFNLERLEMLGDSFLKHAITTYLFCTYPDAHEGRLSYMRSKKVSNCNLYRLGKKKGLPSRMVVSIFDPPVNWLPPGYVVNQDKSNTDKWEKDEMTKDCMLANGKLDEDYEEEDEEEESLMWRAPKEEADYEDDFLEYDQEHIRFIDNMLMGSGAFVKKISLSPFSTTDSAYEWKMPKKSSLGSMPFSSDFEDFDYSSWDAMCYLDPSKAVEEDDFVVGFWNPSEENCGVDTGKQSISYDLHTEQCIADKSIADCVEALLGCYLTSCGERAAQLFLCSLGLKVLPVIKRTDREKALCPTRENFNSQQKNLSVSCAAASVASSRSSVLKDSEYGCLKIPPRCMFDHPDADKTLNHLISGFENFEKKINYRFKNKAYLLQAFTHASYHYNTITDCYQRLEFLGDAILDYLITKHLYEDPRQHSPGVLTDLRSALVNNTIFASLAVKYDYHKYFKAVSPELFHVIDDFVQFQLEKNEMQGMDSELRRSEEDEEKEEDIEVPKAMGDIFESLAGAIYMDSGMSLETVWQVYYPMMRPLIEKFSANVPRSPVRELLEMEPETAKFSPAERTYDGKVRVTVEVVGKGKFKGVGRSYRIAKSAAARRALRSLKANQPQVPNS
Description: filter; within three-fold of full-length; 5 mM EDTA; exact Kd only in figure. Particulars: tags: N-terminal His6 removed by site-specific protease, baculovirus/Sf9. As for the experimental part: After dried, the bound (on Protran) or free (on Nytran) RNAs were detected and quantified with Phosphoimager (GE Healthcare). Percentage of bound RNAs was calculated by 100 multiplied by the ratio of radioactivity (volumes) detected on the Protran membrane over the total input volumes (radioactivity). The bound RNAs (%) (Y-axle) were plotted against protein concentrations (X-axle). K_d was determined by global fitting to the equation of kobsd = (kmax ×[Dicer])(K_{1/2} + [Dicer])^-1, here $kobsd$ is the observed rate constant at a particular protein concentration, $kmax$ is the maximal rate constant with saturating protein, and K_{1/2} (or K_d) is the protein concentration that provides half the maximal rate. Curve fitting was conducted with KleidaGraph (Synery Software).
RNA. […] These values are similar to those measured previously (Provost et al, 2002; Vermeulen et al, 2005). […] The protein lacking both the DExD/H-box domain and the dsRBD (2DD) bound ~3-4 fold more weakly to either substrate relative to full-length Dicer (FIG. 3A-C). It is possible that this severely truncated protein is generally destabilized, or that the DExD/H-box domain plays a small but measurable role in substrate binding.

In data set [2] the target is wild-type human Dicer (flhDcr) (Homo sapiens, UniProt Q9UPY3 SEQ:1-1922). The data set is described as follows: filter; 5 mM EDTA, no free Mg2+, 25 mM NaCl, pH 7.5, room temperature. Particulars: tags: N-terminal His6 removed by site-specific protease, baculovirus/Sf9. As for the experimental part:
A serial dilution of proteins were incubated in a buffer containing 20 mM Tris-Cl (pH 7.5), 25 mM NaCl, 5 mM EDTA, 1 mM dithiothreitol (DTT), 1% glycerol and ~0.5-1 nM (1500 c.p.m.) of ^32P-labeled duplex RNA substrate (one strand was labeled) at room temperature for 60 min […] After this incubation, 25 µl of each reaction were used for dot-blotting, which was conducted in a dot-blot apparatus equipped with 3 membranes of Tuffryn, Protran and Nytran (from top to bottom). After dried, the bound (on Protran) or free (on Nytran) RNAs were detected and quantified with Phosphoimager (GE Healthcare). Percentage of bound RNAs was calculated by 100 multiplied by the ratio of radioactivity (volumes) detected on the Protran membrane over the total input volumes (radioactivity). The bound RNAs (%) (Y-axle) were plotted against protein concentrations (X-axle). K_d was determined by global fitting to the equation of kobsd = (kmax ×[Dicer])(K_{1/2} + [Dicer])^-1, here $kobsd$ is the observed rate constant at a particular protein concentration, $kmax$ is the maximal rate constant with saturating protein, and K_{1/2} (or K_d) is the protein concentration that provides half the maximal rate. Curve fitting was conducted with KleidaGraph (Synery Software).
RNA. […] These values are similar to those measured previously (Provost et al, 2002; Vermeulen et al, 2005).

[3] abbreviates: label: 5'-32P on one strand, perfect duplex with 2-nt 3' overhangs on both ends.

B1: 37ab duplex RNA (dsRNA)
RNA 1: UGAGGUAGUAGGUUGUAUAGUUUGAAAGUUCACGAUU
RNA 2: UCGUGAACUUUCAAACUAUACAACCUACUACCUCAUU
B1: the “Kd relative to full-length Dicer (fold)” value in data set [1] (setting [3]) was ≤ 3 fold of full-length Kd (75 nM). Also, binding in data set [2] (setting [3]) was characterised by a dissociation constant (Kd) of 75 nM.

B2: pre-hlet-7 hairpin RNA (ssRNA)
RNA: UGAGGUAGUAGGUUGUAUAGUUUUAGGGUCACACCCACCACUGGGAGAUAACUAUACAAUCUACUGUCUUACC
For B2, in data set [1] (label: 5'-32P, hairpin), the “Kd relative to full-length Dicer (fold)” value was ≤ 3 fold of full-length Kd (30 nM). Moreover, binding in data set [2] (label: 5'-32P, hairpin) was characterised by a dissociation constant (Kd) of 30 nM.

The term Kd denotes the free concentration of one partner at which half of the binding sites on the other are occupied at equilibrium, for simple one-to-one binding.

The record behind these values is patent US8440430, “Modified dicer polypeptide and methods of use thereof” (The Regents of the University of California).
